Target: T1, GST-AC8 1–77 (rat, UniProt P40146 1-77)
T1 sequence (looked up): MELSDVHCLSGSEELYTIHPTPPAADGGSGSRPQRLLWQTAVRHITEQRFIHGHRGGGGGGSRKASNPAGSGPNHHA
Test: pull-down

B1: AKAP150-HA (natural protein, rat, UniProt P24587 1-714, looked up)
chain: METSVSEIQIETKDEKRPEAASPQKERQERKTATLCFKRRKKVNKKKAKAGSKTAEETEKHAPEAGGSGQRQPAGAWASIKRLVTHRKPSESAEKQKPSEAEMQPEDGALPKKKTKSKLKIPCIRFSRGAKRSRPSKLTEDSGYVRVQGEADDLEIKAQIQPDEQATQAKSTQGLQEDVIVRDGKEIQESHISNNVISGEHVIGIELELEKESSALRMRTPGSEKEAKVILVKQGVQVQEASVLENSAADSPQPVTSTAPLSPATTHQLGLEEPSDSIRESAPSGKDDGRRKTAAEEKKSGETALGQAEEASSVSQADKSVLSQAEEATVGHTEEATVIQAQSQAKEGKLSQAEEATVAQAKETVLSQAEEVKLSQIEEPAISQAKKATVGQAKEAYVSQAEEAIVGHTEKATMGQAEEATVGHIEKTTVGQAEEATVGQAEEATVGQAEEATVGQAEEATVGQAEEATVGQAGEATVSHIEKTTVGQAEEAIVGQAEEATVGQAEEATVGQAEEATVGQAEEATVDQAEEATVGQAEEATVGQAGEAAVGQAEEAIVAQAEEATVGQAGEATVGQAEKATVGQAEEPIVGQAEETVLRHASDLKVNGVDAEKPRSEESKRMEPIAIIITDTEISEFDVKKSKNVPKQFLISMENEQVGVFANDSDFEGRTSEQYETLLIETASSLVKNAIELSVEQLVNEMVSEDNQINTLFQ
- fold interaction against GST-AC8 73–179 (densitometry, HA band relative to GST): 1.6 fold

From publication PMC2888445 (The Journal of Biological Chemistry, 2010)
